Laboratory results published in paper PMC12724217.

Legend:
[1] = target: human chromosomal region maintenance 1 (CRM1) (UniProt O14980); assay: mammalian two-hybrid (CheckMate system) luciferase assay; conditions: HEK-293 cells, 100 ng pG5luc reporter plasmid, 96 hours transfection, read off a plot; for percent of parent: parent: est. 100
[2] = target: human chromosomal region maintenance 1 (CRM1) (UniProt O14980); assay: two-hybrid

Dhori virus (DHOV) matrix protein (M) V115G; L116G; M119G; L120G; I121G; L122G; I127G
response (fold induction) ([1]; parent: est. 5.2): 1.4
percent of parent [1]: 27 % of WT M

Dhori virus (DHOV) matrix protein (M) I121A; L122A
response (fold induction) ([1]; parent: est. 5.2): 4.5
percent of parent [1]: 86 % of WT M

Dhori virus (DHOV) matrix protein (M) M119S
response (fold induction) ([1]; parent: est. 5.7): 7.3
percent of parent [1]: 130 % of WT M

Dhori virus (DHOV) matrix protein (M) V115A; L116A; M119A; L120A; I121A; L122A; I127A
response (fold induction) ([1]; parent: est. 5.2): 1.4
percent of parent [1]: 27 % of WT M

Dhori virus (DHOV) matrix protein (M) I127A
response (fold induction) ([1]; parent: est. 5.7): 11

DHOV M I121A (natural protein)
reduction of the firefly luciferase signal relative to WT M [2]: > 10%

Dhori virus (DHOV) matrix protein (M) I121S; L122S
response (fold induction) ([1]; parent: est. 5.2): 4.7
percent of parent [1]: 90 % of WT M

Dhori virus (DHOV) matrix protein (M) M119A
response (fold induction) ([1]; parent: est. 5.7): 5.8
percent of parent [1]: 100 % of WT M

DHOV M L122S (natural protein)
firefly luciferase signal as percent of WT M [2]: < 70 % of WT M

Dhori virus (DHOV) matrix protein (M) V115S
response (fold induction) ([1]; parent: est. 5.7): 6.2
percent of parent [1]: 110 % of WT M

DHOV M I121S (natural protein)
reduction of the firefly luciferase signal relative to WT M [2]: > 10%

DHOV M L122A (natural protein)
firefly luciferase signal as percent of WT M [2]: < 70 % of WT M

Dhori virus (DHOV) matrix protein (M) L120A
response (fold induction) ([1]; parent: est. 5.7): 7.6
percent of parent [1]: 130 % of WT M

Dhori virus (DHOV) matrix protein (M) V115R; L116R; M119R; L120R; I121R; L122R; I127R
response (fold induction) ([1]; parent: est. 5.2): 1.4
percent of parent [1]: 27 % of WT M

Dhori virus (DHOV) matrix protein (M) L116S
response (fold induction) ([1]; parent: est. 5.7): 5.3
percent of parent [1]: 92 % of WT M

Dhori virus (DHOV) matrix protein (M) I127S
response (fold induction) ([1]; parent: est. 5.7): 14

Dhori virus (DHOV) matrix protein (M) L120S
response (fold induction) ([1]; parent: est. 5.7): 7.7
percent of parent [1]: 140 % of WT M

Dhori virus (DHOV) matrix protein (M) V115A
response (fold induction) ([1]; parent: est. 5.7): 6
percent of parent [1]: 110 % of WT M

Dhori virus (DHOV) matrix protein (M) L116A
response (fold induction) ([1]; parent: est. 5.7): 4.2
percent of parent [1]: 74 % of WT M
